The target in assay [1] is T1, human FcγRIIA (NM_021642) expressed on cells (human, UniProt P12318 36-317).
T1 sequence: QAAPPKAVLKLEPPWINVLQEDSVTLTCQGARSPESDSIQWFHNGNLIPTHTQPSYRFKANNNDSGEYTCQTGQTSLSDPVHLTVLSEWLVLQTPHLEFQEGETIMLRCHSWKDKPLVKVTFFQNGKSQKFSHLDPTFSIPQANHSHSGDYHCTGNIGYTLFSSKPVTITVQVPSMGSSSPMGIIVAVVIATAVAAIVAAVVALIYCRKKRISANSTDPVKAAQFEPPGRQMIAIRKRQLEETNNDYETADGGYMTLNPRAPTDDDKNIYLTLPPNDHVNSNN
Kind of assay: cell-based or functional assay.

Assay [2] concerns the target T1, human FcγRIIA (NM_021642) expressed on …. Kind of assay: flow cytometry; Expi293F cells transfected with FcγRIIA. On the procedure:
(§1) Plasmids expressing cDNAs encoding human FcγRI (NM_000566) (SEQ ID NO: 44), FcγRIIA (NM_021642) (SEQ ID NO: 2), FcγRIIB (NM_004001) (SEQ ID NO: 3), and FcγRIIIA (NM_000569) (SEQ ID NO: 45) (Origene) were transiently transfected into Expi293F cells by ExpiFectamine293 transfection kit (Life Technologies). Flow cytometry assays were performed 48 h after transfection.
(§2) 2×10⁵ cells per well were seeded in 96-well plate and blocked in BSA Stain Buffer (BD Biosciences, San Jose, USA) for 30 min at 4° C. Cells were incubated with test mAbtyrin on ice for 1.5 h at 4° C. After being washed twice with BSA stain buffer, the cells were incubated with R-PE labeled anti-human or anti-mouse IgG secondary antibody (Jackson Immunoresearch Laboratories) for 45 min at 4° C. The cells were washed twice in stain buffer and then resuspended in 150 μL of Stain Buffer containing 1:200 diluted DRAQ7 live/dead stain (Cell Signaling Technology, Danvers, USA). PE and DRAQ7 signals of the stained cells were detected by Miltenyi MACSQuant flow cytometer (Miltenyi Biotec, Auburn, USA) using B2 and B4 channel respectively. Live cells were gated on DRAQ7 exclusion and the geometric mean fluorescence signals were determined for at least 10,000 live events collected. FlowJo software (Tree Star) was used for analysis. Data was plotted as the logarithm of antibody concentration versus mean fluorescence signals. Nonlinear regression analysis was performed by GraphPad Prism 6 (GraphPad Software, Inc.) and EC₅₀ values were calculated.
In general terms: Flow cytometry measures light scatter and fluorescence of single cells or particles in a stream.

Assay [3] has as its target T2, human FcγRIIB (NM_004001) expressed on cells (human, UniProt P31994 43-310).
T2 sequence: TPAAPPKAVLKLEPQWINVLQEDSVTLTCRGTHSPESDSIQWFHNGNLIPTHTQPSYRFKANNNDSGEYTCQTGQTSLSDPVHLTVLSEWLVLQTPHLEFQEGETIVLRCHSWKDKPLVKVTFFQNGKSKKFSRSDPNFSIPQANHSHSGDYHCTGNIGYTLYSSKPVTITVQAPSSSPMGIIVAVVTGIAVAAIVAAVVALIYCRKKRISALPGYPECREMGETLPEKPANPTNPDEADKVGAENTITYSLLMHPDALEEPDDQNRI
Kind of assay: cell-based or functional assay.

Assay [4] concerns the target T3, human OX40 expressed on HEK-Blue: OX40 cells (human, UniProt P43489 29-277).
T3 construct: also called CD134
T3 sequence: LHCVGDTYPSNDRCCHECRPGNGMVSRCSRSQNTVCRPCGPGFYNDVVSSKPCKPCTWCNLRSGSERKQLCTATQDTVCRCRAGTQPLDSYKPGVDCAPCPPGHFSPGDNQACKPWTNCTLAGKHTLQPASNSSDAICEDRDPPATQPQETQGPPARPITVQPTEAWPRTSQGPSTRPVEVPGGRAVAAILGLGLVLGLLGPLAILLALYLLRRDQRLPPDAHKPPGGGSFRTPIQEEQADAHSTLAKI
Kind of assay: flow cytometry; HEK-Blue: OX40 cells. On the procedure:
as §2
The binding of mAbtyrins on OX40 expressed on cell surface were investigated by flow cytometry assay described for testing mAbtyrin binding to FcγR. A stable HEK-Blue reporter cell line expressing human OX40 (HEK-Blue: OX40) was established by transfection OX40 expression plasmid (pUNO1-hOX40) into HEK-Blue™ Null 1 cells engineered to express a secreted embryonic alkaline phosphatase (SEAP) reporter gene under the control of NF-κB-inducible promoter (IFN-β minimal promoter). mAbtyrins were incubated with HEK-Blue: OX40 cells and the binding was detected by flow cytometry using a PE-labeled Goat F(ab′)₂ against Human IgG(γ).

Assay [5] addresses T2, human FcγRIIB (NM_004001) expressed on …. Description: flow cytometry; Raji cells (express predominantly FcγRIIB).
Assay [6] has the same target. Described as above. On the procedure:
as §2
Raji cell is a cell line derived from B cells that express predominantly FcγRIIB. The binding of mAbtyrins on Raji cells were investigated by flow cytometry assay described for testing mAbtyrin binding to FcγR. Binding of the mAbtyrins were detected by flow cytometry using a PE-labeled Goat F(ab′) against Human IgG(γ).
This is another data set of the same source.

For assay [7] the target is unchanged. Kind of assay: flow cytometry; Expi293F cells transfected with FcγRIIB. On the procedure: as §1, §2

B1: OX40SF2IgG2sigma_R2BS56_HC-C (bispecific antibody)
heavy: QVQLVQSGAEVKKPGSSVKVSCKASGYTFKDYTMHWVRQAPGQGLEWIGGIYPNNGGSTYNQNFKDRVTLTADKSTSTAYMELSSLRSEDTAVYYCARMGYHGPHLDFDVWGQGTTVTVSSASTKGPSVFPLAPCSRSTSESTAALGCLVKDYFPEPVTVSWNSGALTSGVHTFPAVLQSSGLYSLSSVVTVPSSNFGTQTYTCNVDHKPSNTKVDKTVERKCCVECPPCPAPPAAASSVFLFPPKPKDTLMISRTPEVTCVVVDVSAEDPEVQFNWYVDGVEVHNAKTKPREEQFNSTFRVVSVLTVLHQDWLNGKEYKCKVSNKGLPSSIEKTISKTKGQPREPQVYTLPPSREEMTKNQVSLTCLVKGFYPSDIAVEWESNGQPENNYKTTPPMLDSDGSFFLYSKLTVDKSRWQQGNVFSCSVMHEALHNHYTQKSLSLSPGKGGGGGSGGGGSGGGGSGGGGSLPAPKNLVVSRVTEDSARLSWTAPDAAFDSFSIAYWEYRKGGEAIVLTVPGSERSYDLTGLKPGTEYFVLIYGVKGGWQSKPLSAIFTT
light: DIQMTQSPSSLSASVGDRVTITCKASQDVGAAVAWYQQKPGKAPKLLIYWASTRHTGVPSRFSGSGSGTDFTLTISSLQPEDFATYYCQQYINYPLTFGGGTKVEIKRTVAAPSVFIFPPSDEQLKSGTASVVCLLNNFYPREAKVQWKVDNALQSGNSQESVTEQDSKDSTYSLSSTLTLSKADYEKHKVYACEVTHQGLSSPVTKSFNRGEC
notes: mAbtyrin: anti-OX40 antibody OX40SF2, effector silent IgG2sigma, with linker and R2BS56 FN3 domain at the C-terminus of the heavy chain; also called mAbtyrin
Turning to B1, the “% OX40 cell killed by macrophages (ADCP, 1 µg/ml)” value (“% OX40 cell killed by macrophages” for short) in assay [1] is 91%. Besides, the EC50 (usually the midpoint of the concentration-response curve) in assay [2] came out at 0.287 mg/L; in assay [6], 9.91 mg/L; in assay [7] it was 1.05 mg/L. For the same molecule, in assay [3], the “% activity at 1 µg/ml with Raji cells (HEK-Blue: OX40 NF-κB reporter, relative to 1 µg/ml OX40 ligand)” value stood at 107%. The “fold of agonism enhancement upon crosslinking (Raji cells)” value (from here on “fold … (Raji cells)”) in assay [3] is 15 fold. The “Binding to HEK-Blue: OX40 cells (mean signal at 1 µg/ml)” value (from here on “Binding to HEK-Blue: OX40 cells”) in assay [4] came to 16900 mean fluorescence signal. In addition, the “fold binding signal over OX40SF2IgG2sigma at 10 µg/mL” value (from here on “fold binding signal”) in assay [5] is at least 6 fold. In addition, the “Binding to Raji cells mean signals at 10 µg/ml” value in assay [6] is 9120 mean fluorescence signal.

B2: OX40SF2IgG2sigma_R2BS39_HC-C (bispecific antibody)
heavy: QVQLVQSGAEVKKPGSSVKVSCKASGYTFKDYTMHWVRQAPGQGLEWIGGIYPNNGGSTYNQNFKDRVTLTADKSTSTAYMELSSLRSEDTAVYYCARMGYHGPHLDFDVWGQGTTVTVSSASTKGPSVFPLAPCSRSTSESTAALGCLVKDYFPEPVTVSWNSGALTSGVHTFPAVLQSSGLYSLSSVVTVPSSNFGTQTYTCNVDHKPSNTKVDKTVERKCCVECPPCPAPPAAASSVFLFPPKPKDTLMISRTPEVTCVVVDVSAEDPEVQFNWYVDGVEVHNAKTKPREEQFNSTFRVVSVLTVLHQDWLNGKEYKCKVSNKGLPSSIEKTISKTKGQPREPQVYTLPPSREEMTKNQVSLTCLVKGFYPSDIAVEWESNGQPENNYKTTPPMLDSDGSFFLYSKLTVDKSRWQQGNVFSCSVMHEALHNHYTQKSLSLSPGKGGGGGSGGGGSGGGGSGGGGSLPAPKNLVVSRVTEDSARLSWTAPDAAFDSFLIQYQESEKVGEAIVLTVPGSERSYDLTGLKPGTEYTVSIYGVSHGPWYNYGEWRSNPLSAIFTT
light: DIQMTQSPSSLSASVGDRVTITCKASQDVGAAVAWYQQKPGKAPKLLIYWASTRHTGVPSRFSGSGSGTDFTLTISSLQPEDFATYYCQQYINYPLTFGGGTKVEIKRTVAAPSVFIFPPSDEQLKSGTASVVCLLNNFYPREAKVQWKVDNALQSGNSQESVTEQDSKDSTYSLSSTLTLSKADYEKHKVYACEVTHQGLSSPVTKSFNRGEC
notes: mAbtyrin: anti-OX40 antibody OX40SF2, effector silent IgG2sigma, with linker and R2BS39 FN3 domain at the C-terminus of the heavy chain; also called mAbtyrin
On to B2, for which the “% OX40 cell killed by macrophages” value in assay [1] came to 83%. The EC50 in assay [2] was 0.532 mg/L. Besides, in assay [3], the “% activity at 1 µg/ml with Raji cells (HEK-Blue: OX40 NF-κB reporter, relative to 1 µg/ml OX40 ligand)” value was 99.5% and the “fold … (Raji cells)” value is 24 fold. In addition, the “Binding to HEK-Blue: OX40 cells” value in assay [4] was determined as 9320 mean fluorescence signal. For the same molecule, the “fold binding signal” value in assay [5] is at least 6 fold. In assay [6], the “Binding to Raji cells mean signals at 10 µg/ml” value is 8220 mean fluorescence signal and the EC50 is over 10 mg/L. A half-maximal effect in assay [7] (EC50) was put at 1.87 mg/L.

B3: OX40SF2IgG2sigma_R2BS6_HC-C (bispecific antibody)
heavy: QVQLVQSGAEVKKPGSSVKVSCKASGYTFKDYTMHWVRQAPGQGLEWIGGIYPNNGGSTYNQNFKDRVTLTADKSTSTAYMELSSLRSEDTAVYYCARMGYHGPHLDFDVWGQGTTVTVSSASTKGPSVFPLAPCSRSTSESTAALGCLVKDYFPEPVTVSWNSGALTSGVHTFPAVLQSSGLYSLSSVVTVPSSNFGTQTYTCNVDHKPSNTKVDKTVERKCCVECPPCPAPPAAASSVFLFPPKPKDTLMISRTPEVTCVVVDVSAEDPEVQFNWYVDGVEVHNAKTKPREEQFNSTFRVVSVLTVLHQDWLNGKEYKCKVSNKGLPSSIEKTISKTKGQPREPQVYTLPPSREEMTKNQVSLTCLVKGFYPSDIAVEWESNGQPENNYKTTPPMLDSDGSFFLYSKLTVDKSRWQQGNVFSCSVMHEALHNHYTQKSLSLSPGKGGGGGSGGGGSGGGGSGGGGSLPAPKNLVVSRVTEDSARLSWTAPDAAFDSFLIQYQESEKVGEAIVLTVPGSERSYDLTGLKPGTEYTVSIYGVQYAAWYLPRHHEASNPLSAIFTT
light: DIQMTQSPSSLSASVGDRVTITCKASQDVGAAVAWYQQKPGKAPKLLIYWASTRHTGVPSRFSGSGSGTDFTLTISSLQPEDFATYYCQQYINYPLTFGGGTKVEIKRTVAAPSVFIFPPSDEQLKSGTASVVCLLNNFYPREAKVQWKVDNALQSGNSQESVTEQDSKDSTYSLSSTLTLSKADYEKHKVYACEVTHQGLSSPVTKSFNRGEC
notes: mAbtyrin: anti-OX40 antibody OX40SF2, effector silent IgG2sigma, with linker and R2BS6 FN3 domain at the C-terminus of the heavy chain; also called mAbtyrin
On to B3, for which the “% OX40 cell killed by macrophages” value in assay [1] amounted to 82%. For the same molecule, in assay [2], a half-maximal response (EC50) required 0.7 mg/L. For the same molecule, in assay [3], the “% activity at 1 µg/ml with Raji cells (HEK-Blue: OX40 NF-κB reporter, relative to 1 µg/ml OX40 ligand)” value was 83.5% and the “fold … (Raji cells)” value was determined as 17 fold. Also, in assay [4], the “Binding to HEK-Blue: OX40 cells” value was 10400 mean fluorescence signal. The “fold binding signal” value in assay [5] was at least 6 fold. In addition, in assay [6], the “Binding to Raji cells mean signals at 10 µg/ml” value is 5380 mean fluorescence signal and the EC50 was over 10 mg/L. This molecule displayed a concentration giving a half-maximal response (EC50) in assay [7] of 1.56 mg/L.

The values above are taken from patent publication US20190062420A1 (Janssen / Centocor, published 2019).
